The values that follow come from PMC7641761.

For data set [1], the target named is T1, Ku70/Ku80 heterodimer FL (baculovirus) (human, UniProt P12956;P13010 1-609;1-718). The experiment in a line: MST; Hill 1.75; MST: 50 mM Tris pH 8.0, 50 mM NaCl, 1 mM DTT, 24 C, 40 nM FAM-RNA; EMSA: 25 mM Hepes-KOH pH 7.5, 50 mM NaCl, 1 mM DTT, 1 mM EDTA, 10% glycerol, 0.1 uM BSA, room temperature, 25 min. The conditions noted are these: protein: recombinant; tags: His (Ku80); copies: 1;1; label: 5'-FAM; blunt.

Data set [2] addresses T1, Ku70/Ku80 heterodimer FL (baculovirus). The experiment in a line: MST; MST: 50 mM Tris pH 8.0, 50 mM NaCl, 1 mM DTT, 24 C, 40 nM FAM-RNA; EMSA: 25 mM Hepes-KOH pH 7.5, 50 mM NaCl, 1 mM DTT, 1 mM EDTA, 10% glycerol, 0.1 uM BSA, room temperature, 25 min. The conditions noted are these: protein: recombinant, tags: His (Ku80), copies: 1;1, label: 5'-FAM.
Data set [3] concerns the target T2, Ku70/Ku80 heterodimer FL (baculovirus);XLF (human;human?, UniProt P12956;P13010;Q9H9Q4 1-609;1-718;1-299, |). As to the kind of experiment: EMSA; supershift; MST: 50 mM Tris pH 8.0, 50 mM NaCl, 1 mM DTT, 24 C, 40 nM FAM-RNA; EMSA: 25 mM Hepes-KOH pH 7.5, 50 mM NaCl, 1 mM DTT, 1 mM EDTA, 10% glycerol, 0.1 uM BSA, room temperature, 25 min. Particulars: protein: recombinant;recombinant, tags: His (Ku80);, copies: 1;1;2, label: 5'-FAM.

Data set [4] concerns the target Ku dCTR (human, UniProt P12956;P13010 1-609;1-569). As to the kind of experiment: MST; MST: 50 mM Tris pH 8.0, 50 mM NaCl, 1 mM DTT, 24 C, 40 nM FAM-RNA; EMSA: 25 mM Hepes-KOH pH 7.5, 50 mM NaCl, 1 mM DTT, 1 mM EDTA, 10% glycerol, 0.1 uM BSA, room temperature, 25 min. Particulars: protein: recombinant; copies: 1;1; label: 5'-FAM; hairpin with bulge.
For data set [5], the target named is T1, Ku70/Ku80 heterodimer FL (baculovirus). The experiment in a line: MST; Hill 1.0; MST: 50 mM Tris pH 8.0, 50 mM NaCl, 1 mM DTT, 24 C, 40 nM FAM-RNA; EMSA: 25 mM Hepes-KOH pH 7.5, 50 mM NaCl, 1 mM DTT, 1 mM EDTA, 10% glycerol, 0.1 uM BSA, room temperature, 25 min. Particulars: protein: recombinant; tags: His (Ku80); copies: 1;1; label: 5'-FAM stated for MST RNAs.

For data set [6] the target is unchanged. The experiment in a line: EMSA; Ku preparation not stated; MST: 50 mM Tris pH 8.0, 50 mM NaCl, 1 mM DTT, 24 C, 40 nM FAM-RNA; EMSA: 25 mM Hepes-KOH pH 7.5, 50 mM NaCl, 1 mM DTT, 1 mM EDTA, 10% glycerol, 0.1 uM BSA, room temperature, 25 min. The conditions noted are these: protein: recombinant; tags: His (Ku80); copies: 1;1; label: 5'-FAM; G4.
In data set [7] the target is T2, Ku70/Ku80 heterodimer FL …. As to the kind of experiment: EMSA; supershift; Ku preparation not stated; MST: 50 mM Tris pH 8.0, 50 mM NaCl, 1 mM DTT, 24 C, 40 nM FAM-RNA; EMSA: 25 mM Hepes-KOH pH 7.5, 50 mM NaCl, 1 mM DTT, 1 mM EDTA, 10% glycerol, 0.1 uM BSA, room temperature, 25 min. The conditions noted are these: protein: recombinant;recombinant; tags: His (Ku80);; copies: 1;1;2; label: 3'-FAM on lower strand; blunt.

The target of data set [8] is Ku70/Ku80 heterodimer FL (baculovirus);PAXX (human;human?, UniProt P12956;P13010;Q9BUH6 1-609;1-718;1-204, |). The experiment in a line: EMSA; supershift; MST: 50 mM Tris pH 8.0, 50 mM NaCl, 1 mM DTT, 24 C, 40 nM FAM-RNA; EMSA: 25 mM Hepes-KOH pH 7.5, 50 mM NaCl, 1 mM DTT, 1 mM EDTA, 10% glycerol, 0.1 uM BSA, room temperature, 25 min. Particulars: protein: recombinant;recombinant; tags: His (Ku80);GST cleaved; copies: 1;1;2; label: 3'-FAM on lower strand; blunt.

The target in data set [9] is Ku5D (human, UniProt P12956;P13010 1-609;1-718, T305D;S306D;T307D;S314D;T316D). The experiment in a line: MST; 20-fold weaker than WT; MST: 50 mM Tris pH 8.0, 50 mM NaCl, 1 mM DTT, 24 C, 40 nM FAM-RNA; EMSA: 25 mM Hepes-KOH pH 7.5, 50 mM NaCl, 1 mM DTT, 1 mM EDTA, 10% glycerol, 0.1 uM BSA, room temperature, 25 min. Particulars: protein: recombinant; copies: 1;1; label: 5'-FAM on strand 1; fork; 42-mer/29-mer.
Chain of Ku5D (P12956 whole entry T305D/S306D/T307D/S314D/T316D, chain 1 of 2): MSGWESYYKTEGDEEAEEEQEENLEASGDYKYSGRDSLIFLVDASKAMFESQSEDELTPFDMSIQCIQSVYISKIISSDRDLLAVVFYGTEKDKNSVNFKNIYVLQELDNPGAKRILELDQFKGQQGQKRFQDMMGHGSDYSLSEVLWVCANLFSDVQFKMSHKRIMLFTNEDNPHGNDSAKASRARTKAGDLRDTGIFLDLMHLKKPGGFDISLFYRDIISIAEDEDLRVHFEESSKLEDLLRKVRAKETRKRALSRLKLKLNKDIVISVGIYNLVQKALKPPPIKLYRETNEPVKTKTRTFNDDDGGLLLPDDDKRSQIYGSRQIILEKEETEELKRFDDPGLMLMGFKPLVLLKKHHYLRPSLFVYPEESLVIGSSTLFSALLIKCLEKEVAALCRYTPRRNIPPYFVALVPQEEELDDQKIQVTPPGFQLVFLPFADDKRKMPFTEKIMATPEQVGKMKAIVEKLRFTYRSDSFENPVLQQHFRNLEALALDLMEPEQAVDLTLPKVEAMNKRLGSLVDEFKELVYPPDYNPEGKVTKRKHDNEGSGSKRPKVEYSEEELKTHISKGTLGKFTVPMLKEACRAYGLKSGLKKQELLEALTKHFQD
Chain of Ku5D (P13010 1-718, chain 2 of 2): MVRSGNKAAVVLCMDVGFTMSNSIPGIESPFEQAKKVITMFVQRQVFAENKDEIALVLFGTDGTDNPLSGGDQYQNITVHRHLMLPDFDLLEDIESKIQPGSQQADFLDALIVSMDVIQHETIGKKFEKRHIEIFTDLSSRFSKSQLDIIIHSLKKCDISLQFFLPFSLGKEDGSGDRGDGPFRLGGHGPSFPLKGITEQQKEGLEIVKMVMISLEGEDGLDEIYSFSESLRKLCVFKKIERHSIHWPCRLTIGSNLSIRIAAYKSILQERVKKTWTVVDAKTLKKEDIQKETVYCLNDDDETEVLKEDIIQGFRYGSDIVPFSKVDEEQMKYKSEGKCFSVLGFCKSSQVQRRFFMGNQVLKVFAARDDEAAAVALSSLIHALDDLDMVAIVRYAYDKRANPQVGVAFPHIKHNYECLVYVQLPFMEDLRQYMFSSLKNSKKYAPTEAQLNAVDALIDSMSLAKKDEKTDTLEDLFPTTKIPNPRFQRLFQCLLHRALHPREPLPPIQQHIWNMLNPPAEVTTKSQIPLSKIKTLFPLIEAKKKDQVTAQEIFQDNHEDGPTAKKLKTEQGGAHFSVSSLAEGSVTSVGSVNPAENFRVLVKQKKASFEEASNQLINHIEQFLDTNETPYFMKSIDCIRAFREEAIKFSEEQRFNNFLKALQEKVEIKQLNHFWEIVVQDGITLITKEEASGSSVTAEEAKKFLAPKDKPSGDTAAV

T2 sequence (P12956 whole entry, chain 1 of 3): as the sequence (P12956 whole entry T305D/S306D/T307D/S314D/T316D, chain 1 of 2) above, with D305T, D306S, D307T, D314S, D316T counted along it
T2 sequence (P13010 1-718, chain 2 of 3): as the sequence (P13010 1-718, chain 2 of 2) above
T2 sequence (Q9H9Q4 whole entry, chain 3 of 3): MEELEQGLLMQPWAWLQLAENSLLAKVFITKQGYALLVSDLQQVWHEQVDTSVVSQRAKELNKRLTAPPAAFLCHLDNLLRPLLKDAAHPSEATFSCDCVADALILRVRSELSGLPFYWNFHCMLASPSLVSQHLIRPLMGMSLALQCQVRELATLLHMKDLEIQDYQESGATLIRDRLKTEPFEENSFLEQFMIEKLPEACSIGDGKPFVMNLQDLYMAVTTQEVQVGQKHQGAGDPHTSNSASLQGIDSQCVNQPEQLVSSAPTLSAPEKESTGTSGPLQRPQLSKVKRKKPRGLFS
T1 sequence (P12956 whole entry, chain 1 of 2): as the sequence (P12956 whole entry T305D/S306D/T307D/S314D/T316D, chain 1 of 2) above, with D305T, D306S, D307T, D314S, D316T counted along it
T1 sequence (P13010 1-718, chain 2 of 2): as the sequence (P13010 1-718, chain 2 of 2) above
Chain of Ku dCTR (P12956 whole entry, chain 1 of 2): as the sequence (P12956 whole entry T305D/S306D/T307D/S314D/T316D, chain 1 of 2) above, with D305T, D306S, D307T, D314S, D316T counted along it
Chain of Ku dCTR (P13010 1-569, chain 2 of 2): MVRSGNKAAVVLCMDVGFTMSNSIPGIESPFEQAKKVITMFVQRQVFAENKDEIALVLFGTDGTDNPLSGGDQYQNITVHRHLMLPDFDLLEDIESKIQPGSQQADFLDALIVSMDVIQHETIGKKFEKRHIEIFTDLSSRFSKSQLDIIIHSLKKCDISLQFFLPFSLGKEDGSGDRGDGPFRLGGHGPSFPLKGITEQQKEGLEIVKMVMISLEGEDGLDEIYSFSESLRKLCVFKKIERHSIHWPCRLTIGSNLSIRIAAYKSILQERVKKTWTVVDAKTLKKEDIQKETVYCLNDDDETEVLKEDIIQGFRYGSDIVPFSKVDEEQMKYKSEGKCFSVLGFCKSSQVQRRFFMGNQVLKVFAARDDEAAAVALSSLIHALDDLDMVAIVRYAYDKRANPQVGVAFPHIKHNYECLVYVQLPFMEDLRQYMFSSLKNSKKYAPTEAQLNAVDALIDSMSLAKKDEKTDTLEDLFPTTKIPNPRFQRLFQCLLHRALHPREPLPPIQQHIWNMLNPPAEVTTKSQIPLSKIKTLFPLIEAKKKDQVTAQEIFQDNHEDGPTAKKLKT
Chain of Ku70/Ku80 heterodimer FL (baculovirus);PAXX (P12956 whole entry, chain 1 of 3): as the sequence (P12956 whole entry T305D/S306D/T307D/S314D/T316D, chain 1 of 2) above, with D305T, D306S, D307T, D314S, D316T counted along it
Chain of Ku70/Ku80 heterodimer FL (baculovirus);PAXX (P13010 1-718, chain 2 of 3): as the sequence (P13010 1-718, chain 2 of 2) above
Chain of Ku70/Ku80 heterodimer FL (baculovirus);PAXX (Q9BUH6 whole entry, chain 3 of 3): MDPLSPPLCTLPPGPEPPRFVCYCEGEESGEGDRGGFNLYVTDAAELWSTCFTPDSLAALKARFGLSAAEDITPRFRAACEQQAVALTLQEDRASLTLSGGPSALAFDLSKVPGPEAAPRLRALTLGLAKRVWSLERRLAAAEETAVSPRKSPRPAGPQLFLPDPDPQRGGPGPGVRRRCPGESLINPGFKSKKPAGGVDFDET

B1: d50 DNA (dsDNA)
DNA 1: CTCTTGGTGATTATGGTTGCAATACATTTAATTTCATTATCAATTAG
DNA 2: CTAATTGATAATGAAATTAAATGTATTGCAACCATAATCACCAAGAG
Consider B1, for which the Kd in [1] stood at 19 ± 19 nM.

B2: TERRA G-quadruplex (structured_RNA)
RNA: UAGGGUUAGGGU
Consider B2, for which the Kd in data set [2] (G4 (multimeric)) stood at 430 ± 180 nM.

B3: SL2-BT (structured_RNA)
RNA: UGACUGGAGGAAGGAGUAUAGAAACUCUUCCUUUUGGCG
As to B3, the Kd in data set [2] (hairpin) is 6050 ± 9400 nM.

B4: SL3-LM (structured_RNA)
RNA: AAGGCUAGACCGGGGGCUCGCAUUUCUUUUUUUGCAGCUGCCACUGCCA
Consider B4, for which the dissociation constant Kd in data set [2] (hairpin) is 2370 ± 1040 nM.

B5: SL3 (structured_RNA)
RNA: AAGGCUAGACCGGGGGCUCGCAUAUCUCCACUUGCAGCUGCCACUGCCA
B5: the binding result in data set [3] (hairpin with bulge) was “binds”. For the same molecule, in data set [2] (hairpin with bulge), the Kd amounted to 840 ± 450 nM.

B6: SL1 (structured_RNA)
RNA: CCCUCCGUCUCCUUGACUCUGGG
As to B6, the Kd in data set [2] (hairpin) is 1690 ± 700 nM.

B7: SL2 (structured_RNA)
RNA: UGACUUUUCCUUGCUCAAUAGAAUGAGAAGGAGGUGGCG
For the molecule B7, the binding result in data set [3] (hairpin with bulge) is on record as “binds”. In addition, the Kd was found to be 900 ± 170 nM in [2] (hairpin with bulge) and 1020 ± 180 nM in data set [4].

B8: LINP1 (1-300) (structured_RNA)
RNA: CCCUCCGUCUCCUUGACUCUGGGUGGGCUGUGUGACUUUUCCUUGCUCAAUAGAAUGAGAAGGAGGUGGCGCACCGGCUACAAGGCUAGACCGGGGGCUCGCAUAUCUCCACUUGCAGCUGCCACUGCCAUUAGAAGAACUUGCUCAGCCAGCUCCUGGGCCCCAGGAAAAGGACAAGUGUCACCCAGAACAGAGCCACCUCCAGCUGCACUCAGCUCCAGAAGCUGGCCCAGCCGGUCCAGUACACCUUUUAAAUAAUGUCCUCUACGUGCCGGUGUGGAAGUAGCCCGGAUGCAAUUG
With B8, the Kd in [5] is 1920 ± 330 nM.

B9: DNA G-quadruplex (structured_DNA)
DNA: TTAGGGTTAGGGTTAGGGTTAGGG
Regarding B9, in data set [6], the binding result is “no binding”.

B10: 25bp duplex DNA (dsDNA)
DNA 1: AGCATTGACTGGCATCGTAGCATCC
DNA 2: GGATGCTACGATGCCAGTCAATGCT
As to B10, the binding result in data set [7] and in data set [8] was “binds” throughout.

B11: Fork substrate (dsDNA)
DNA 1: CGCGCCCAGCTTTCCCAGCTAATAAACTAAAAACTCCTAAGG
DNA 2: CCTTAGGAGTTTTTAGTTTATTGGGCGCG
On to B11, for which the dissociation constant Kd in data set [9] is roughly 15 µM.

B12: SL3-BT (structured_RNA)
RNA: AACCGUAGACCCCGUCGACCGUUAUCUCCACUACGUCGGGGGACUGGGA
For the molecule B12, in data set [2] (hairpin), the equilibrium dissociation constant (Kd) amounted to 1870 ± 360 nM.

B13: SL2-LM (structured_RNA)
RNA: UGACUUUUCCUUGCUCAUUUUUUUGAGAAGGAGGUGGCG
Consider B13, for which the Kd in [2] (hairpin) is 1620 ± 470 nM.

B14: LINP1 GQ1 (structured_RNA)
RNA: CCUGGGGUAGGAGAGGGUAUGGGGACCAGGGCACU
Regarding B14, the binding result in [3] (G4) is on record as “binds”. Besides, the Kd in data set [2] (G4) was found to be 110 ± 40 nM.
